We go through 2 substances from article PMC10869282.

The target of test [1] is cis-epoxysuccinate hydrolase producing L(+)-tartaric acid from Klebsiella sp. BK-58 (KlCESH[L]) (Klebsiella sp. BK-58). Kind of test: SEC; gel filtration of the purified enzyme against a molecular standard mixture (ovalbumin, chymotrypsin, ribonuclease A, aprotinin); aggregation state of RhCESH[L] unchanged in the presence or absence of DTT.
Test [2] deals with cis-epoxysuccinate hydrolase producing L(+)-tartaric acid from Rhodococcus opacus (RhCESH[L]) (Rhodococcus opacus). Described as above.

As a reminder, the stoichiometry N is the number of molecules, sites or subunits per partner or assembly.

“cis-epoxysuccinate hydrolase producing L(+)-tartaric acid from Klebsiella sp. BK-58 (KlCESH[L]) (enzyme)”: in test [1], the stoichiometry N stood at 2.
“cis-epoxysuccinate hydrolase producing L(+)-tartaric acid from Rhodococcus opacus (RhCESH[L]) (enzyme)”: in test [2], the stoichiometry N was determined as 2.
